Key:
[1] = molecular target: CD16-F176V-V196_S197insP-V197_T198insP (Homo sapiens (Human)) (UniProt P08637); test: cell-based or functional assay
[2] = molecular target: CD16-WT (Homo sapiens (Human)) (UniProt P08637); test: cell-based or functional assay

metalloproteinase 17 (ADAM17) (from UniProt P78536 215-824) (enzyme)
decrease of CD16 expression on iNK cells after adding Raji cells and Rituximab [1]: 9%
decrease of CD16 expression on iNK cells after adding Raji cells and Rituximab [2]: 40%
